The values that follow come from patent US20030148956A1 (PROCTER AND GAMBLE, published 2003).

Ends that are not written are not given here.

The first assay has as its target T1, corticotropin releasing factor 2 receptor.
T1 sequence (Q13324 whole entry, species assumed, looked up): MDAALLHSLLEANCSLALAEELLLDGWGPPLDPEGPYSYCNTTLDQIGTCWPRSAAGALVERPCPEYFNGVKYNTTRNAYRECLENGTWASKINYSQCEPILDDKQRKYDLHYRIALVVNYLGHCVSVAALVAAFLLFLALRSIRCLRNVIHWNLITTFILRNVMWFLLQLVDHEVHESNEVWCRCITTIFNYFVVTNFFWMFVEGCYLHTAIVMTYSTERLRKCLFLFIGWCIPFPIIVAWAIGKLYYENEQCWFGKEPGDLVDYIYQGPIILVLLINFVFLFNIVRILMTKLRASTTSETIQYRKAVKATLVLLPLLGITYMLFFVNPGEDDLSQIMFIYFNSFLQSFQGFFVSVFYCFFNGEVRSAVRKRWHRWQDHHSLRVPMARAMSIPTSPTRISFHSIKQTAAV
The experiment in a line: cell-based or functional assay.
As to PSLSIDLPLILLRTLLELEKTQSQRERAEQNARIFARV-NH2 [SEQ ID NO 332], the “CRF2R EC50” value came to 9.95 nM and the “CRF2R Emax %” value amounted to 100%.
For DNPSLSIDLPLFLLRTLLELEKTQSQRERAEQNARIFDRV-NH2 [SEQ ID NO 336], the “CRF2R EC50” value stood at 17.8 nM and the “CRF2R Emax %” value was found to be 100%.
With Ac-DNPSLSIDLPLLLLRTLLELEKTQSQRERAEQNAIIFASV-NH2 [SEQ ID NO 347], the “CRF2R EC50” value was 22.4 nM.
For the molecule DNPSLSIDLPLLLLRTLLELEKTQSQRERAEQNAHIFAHV-NH2 [SEQ ID NO 328], the “CRF2R EC50” value is 11.7 nM and the “CRF2R Emax %” value is 95.7%.
The matching figures for DNPSLSIDLPLILLRTLLELEKTQSQRERAEQNAIIFASV-NH2 [SEQ ID NO 345]: 39.7 nM and 100%.
For Ac-IVLSLDVPIGLLQILLEQARARAAREQATTNARILARV-NH2 [SEQ ID NO 354], the “CRF2R EC50” value is 6.48 nM and the “CRF2R Emax %” value was found to be 100%.
As to DNPSLSIDLPLLLLRTLLELEKTQSQRERAEQNARIFARV-NH2 [SEQ ID NO 341], the “CRF2R EC50” value worked out at 8.83 nM and the “CRF2R Emax %” value stood at 95.5%.
The matching figures for PSLSIDLPLLLLRTLLELEKTQSQRERAEQNARIFARV-NH2 [SEQ ID NO 333]: 9.85 nM and 96.9%.
With ZGPPISIDLPLQLLRKVIEIEKQEKEKQQAANNALLLATI (C-terminal amide) [SEQ ID NO 349], the “CRF2R EC50” value is 13.8 nM and the “CRF2R Emax %” value is 100%.
The matching figures for ZGPPISIDLPFQLLRKVIEIEKQEKEKQQAANNALLLATI (C-terminal amide) [SEQ ID NO 352]: 8.26 nM and 83.7%.
As for ZGPPISIDLPFQLLRKVIEIEKQEKEKQQAANNALLLDTI (C-terminal amide) [SEQ ID NO 350], the “CRF2R EC50” value came to 11.6 nM and the “CRF2R Emax %” value stood at 98.1%.
The matching figures for ZGPPISIDLSLELLRKMIEIEKQEKEKQQAANNRLLLDTI (C-terminal amide) [SEQ ID NO 355]: 6.03 nM and 95%.
Consider DNPSLSIDLPLLLLRTLLELEKTQSQRERAEQNAQIFAQV-NH2 [SEQ ID NO 327], for which the “CRF2R EC50” value came to 28.4 nM and the “CRF2R Emax %” value is 100%.
As for PSLSIDLPLFLLRTLLELEKTQSQRERAEQNARIFARV-NH2 [SEQ ID NO 331], the “CRF2R EC50” value is 9.85 nM and the “CRF2R Emax %” value was found to be 100%.
For the molecule ZGPPISIDLPFQLLRKVIEIEKQEKEKQQATTNARLLDRV (C-terminal amide) [SEQ ID NO 351], the “CRF2R EC50” value was 12.9 nM and the “CRF2R Emax %” value was determined as 97.4%.
Regarding ZGPPISIDLPLYLLRKMIEIEKQEKEKQQATTNARILARV (C-terminal amide) [SEQ ID NO 353], the “CRF2R EC50” value came to 4.75 nM and the “CRF2R Emax %” value is 89.9%.
Regarding IVLSLDVPIGLLQILLEQARARAAREQATTNARILARVM-NH2 [SEQ ID NO 356], the “CRF2R EC50” value stood at 83 nM.
DNPSLSIDLPLLLLRTLLELEKTQSQRERAEQNARIFDRV-NH2 [SEQ ID NO 338]: the “CRF2R EC50” value was 19.3 nM and the “CRF2R Emax %” value was found to be 77.5%.
On to DNPSLSIDLPLLLLRTLLELEKTQSQRERAEQNANIFANV-NH2 [SEQ ID NO 326], for which the “CRF2R EC50” value was 33.7 nM and the “CRF2R Emax %” value is 100%.
Regarding PSLSIDLPLLLLRTLLELEKTQSQRERAEQNAIIFASV-NH2 [SEQ ID NO 344], the “CRF2R EC50” value turned out to be 4.3 nM.
Take DNPSLSIDLPLLLLRTLLELEKTQSQRERAEQNAIIFASV-NH2 [SEQ ID NO 346]: the “CRF2R EC50” value was 8.48 nM.
DNPSLSIDLPLFLLRTLLELEKTQSQRERAEQNAIIFASV-NH2 [SEQ ID NO 343]: the “CRF2R EC50” value is 13.6 nM and the “CRF2R Emax %” value came to 96.5%.
Regarding DNPSLSIDLPLFLLRTLLELARTQSQRERAEQNARIFARV-NH2 [SEQ ID NO 329], the “CRF2R EC50” value stood at 5.15 nM and the “CRF2R Emax %” value came out at 98.3%.
Consider DNPSLSIDLPLILLRTLLELARTQSQRERAEQNARIFARV-NH2 [SEQ ID NO 330], for which the “CRF2R EC50” value turned out to be 6 nM and the “CRF2R Emax %” value was found to be 93.7%.
The matching figures for DNPSLSIDLPQYLLRTLLELARTQSQRERAEQNAIIFASV-NH2 [SEQ ID NO 339]: 100 nM and 47.9%.
Ac-PSLSIDLPLLLLRTLLELEKTQSQRERAEQNAIIFASV-NH2 [SEQ ID NO 348]: the “CRF2R EC50” value came to 5.77 nM.
Take DNPSLSIDLPLILLRTLLELEKTQSQRERAEQNARIFDRV-NH2 [SEQ ID NO 337]: the “CRF2R EC50” value amounted to 23.9 nM and the “CRF2R Emax %” value was 86.7%.
Take DNPSLSIDLPLFLLRTLLELEKTQSQRERAEQNARIFARV-NH2 [SEQ ID NO 334]: the “CRF2R EC50” value was found to be 13.2 nM and the “CRF2R Emax %” value is 93.5%.
DNPSLSIDLPLLLLRTLLELARTQSQRERAEQNARIFARV-NH2 [SEQ ID NO 340]: the “CRF2R EC50” value came out at 7.99 nM and the “CRF2R Emax %” value is 100%.
The matching figures for DNPSLSIDLPLQLLRTLLELEKTQSQRERAEQNAIIFASV-NH2 [SEQ ID NO 342]: 20.2 nM and 92.2%.
The matching figures for DNPSLSIDLPLILLRTLLELEKTQSQRERAEQNARIFARV-NH2 [SEQ ID NO 335]: 28.1 nM and 91%.

Another assay has as its target corticotropin releasing factor 1 receptor. The experiment in a line: cell-based or functional assay.
On to PSLSIDLPLILLRTLLELEKTQSQRERAEQNARIFARV-NH2 [SEQ ID NO 332], for which the “CRF1R EC50” value worked out at 1000 nM and the “CRF1R Emax %” value turned out to be 61.3%.
The matching figures for DNPSLSIDLPLFLLRTLLELEKTQSQRERAEQNARIFDRV-NH2 [SEQ ID NO 336]: 1000 nM and 59.9%.
In the case of Ac-DNPSLSIDLPLLLLRTLLELEKTQSQRERAEQNAIIFASV-NH2 [SEQ ID NO 347], the “CRF1R EC50” value stood at 1000 nM.
On to DNPSLSIDLPLLLLRTLLELEKTQSQRERAEQNAHIFAHV-NH2 [SEQ ID NO 328], for which the “CRF1R EC50” value came to 1000 nM and the “CRF1R Emax %” value was 30.7%.
As to DNPSLSIDLPLILLRTLLELEKTQSQRERAEQNAIIFASV-NH2 [SEQ ID NO 345], the “CRF1R EC50” value was 1000 nM and the “CRF1R Emax %” value came to 18.8%.
The matching figures for Ac-IVLSLDVPIGLLQILLEQARARAAREQATTNARILARV-NH2 [SEQ ID NO 354]: 1000 nM and 13.4%.
As for DNPSLSIDLPLLLLRTLLELEKTQSQRERAEQNARIFARV-NH2 [SEQ ID NO 341], the “CRF1R EC50” value worked out at 850 nM and the “CRF1R Emax %” value was 82.3%.
With PSLSIDLPLLLLRTLLELEKTQSQRERAEQNARIFARV-NH2 [SEQ ID NO 333], the “CRF1R EC50” value was 1000 nM and the “CRF1R Emax %” value came out at 43.8%.
The matching figures for ZGPPISIDLPLQLLRKVIEIEKQEKEKQQAANNALLLATI (C-terminal amide) [SEQ ID NO 349]: 1000 nM and 44.2%.
The matching figures for ZGPPISIDLPFQLLRKVIEIEKQEKEKQQAANNALLLATI (C-terminal amide) [SEQ ID NO 352]: 780 nM and 82.6%.
In the case of ZGPPISIDLPFQLLRKVIEIEKQEKEKQQAANNALLLDTI (C-terminal amide) [SEQ ID NO 350], the “CRF1R EC50” value turned out to be 1000 nM and the “CRF1R Emax %” value is 48%.
With ZGPPISIDLSLELLRKMIEIEKQEKEKQQAANNRLLLDTI (C-terminal amide) [SEQ ID NO 355], the “CRF1R EC50” value turned out to be 18 nM and the “CRF1R Emax %” value was found to be 100%.
The matching figures for DNPSLSIDLPLLLLRTLLELEKTQSQRERAEQNAQIFAQV-NH2 [SEQ ID NO 327]: 1000 nM and 36.5%.
For PSLSIDLPLFLLRTLLELEKTQSQRERAEQNARIFARV-NH2 [SEQ ID NO 331], the “CRF1R EC50” value came to 1000 nM and the “CRF1R Emax %” value amounted to 78.7%.
The matching figures for ZGPPISIDLPFQLLRKVIEIEKQEKEKQQATTNARLLDRV (C-terminal amide) [SEQ ID NO 351]: 1000 nM and 85.7%.
The matching figures for ZGPPISIDLPLYLLRKMIEIEKQEKEKQQATTNARILARV (C-terminal amide) [SEQ ID NO 353]: 230 nM and 92.2%.
As for IVLSLDVPIGLLQILLEQARARAAREQATTNARILARVM-NH2 [SEQ ID NO 356], the “CRF1R EC50” value was determined as 1000 nM.
For DNPSLSIDLPLLLLRTLLELEKTQSQRERAEQNARIFDRV-NH2 [SEQ ID NO 338], the “CRF1R EC50” value stood at 1000 nM and the “CRF1R Emax %” value is 41.1%.
The matching figures for DNPSLSIDLPLLLLRTLLELEKTQSQRERAEQNANIFANV-NH2 [SEQ ID NO 326]: 1000 nM and 30.1%.
For the molecule PSLSIDLPLLLLRTLLELEKTQSQRERAEQNAIIFASV-NH2 [SEQ ID NO 344], the “CRF1R EC50” value turned out to be 650 nM.
Regarding DNPSLSIDLPLLLLRTLLELEKTQSQRERAEQNAIIFASV-NH2 [SEQ ID NO 346], the “CRF1R EC50” value turned out to be 1000 nM.
On to DNPSLSIDLPLFLLRTLLELEKTQSQRERAEQNAIIFASV-NH2 [SEQ ID NO 343], for which the “CRF1R EC50” value came to 783 nM and the “CRF1R Emax %” value was 62.5%.
The matching figures for DNPSLSIDLPLFLLRTLLELARTQSQRERAEQNARIFARV-NH2 [SEQ ID NO 329]: 1000 nM and 98.4%.
The matching figures for DNPSLSIDLPLILLRTLLELARTQSQRERAEQNARIFARV-NH2 [SEQ ID NO 330]: 1000 nM and 86.8%.
Turning to DNPSLSIDLPQYLLRTLLELARTQSQRERAEQNAIIFASV-NH2 [SEQ ID NO 339], the “CRF1R EC50” value came to 1000 nM and the “CRF1R Emax %” value stood at 13.2%.
Ac-PSLSIDLPLLLLRTLLELEKTQSQRERAEQNAIIFASV-NH2 [SEQ ID NO 348]: the “CRF1R EC50” value amounted to 630 nM.
As for DNPSLSIDLPLILLRTLLELEKTQSQRERAEQNARIFDRV-NH2 [SEQ ID NO 337], the “CRF1R EC50” value was determined as 1000 nM and the “CRF1R Emax %” value stood at 36.5%.
The matching figures for DNPSLSIDLPLFLLRTLLELEKTQSQRERAEQNARIFARV-NH2 [SEQ ID NO 334]: 1000 nM and 82.6%.
The matching figures for DNPSLSIDLPLLLLRTLLELARTQSQRERAEQNARIFARV-NH2 [SEQ ID NO 340]: 740 nM and 96%.
The matching figures for DNPSLSIDLPLQLLRTLLELEKTQSQRERAEQNAIIFASV-NH2 [SEQ ID NO 342]: 1000 nM and 19.6%.
For the molecule DNPSLSIDLPLILLRTLLELEKTQSQRERAEQNARIFARV-NH2 [SEQ ID NO 335], the “CRF1R EC50” value stood at 1000 nM and the “CRF1R Emax %” value was 49.5%.
